Reference: the domain aggregation screens of Martell et al. (2025)

Experiment: soluble fraction after stress (log2 fold change); higher = more stays soluble; pooled small domains, quantitative proteomics
Settings: stress: 50 degC
In short: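 Each library was heated to 50°C as a stress step. The libraries, made up of small protein domains, were pooled and analysed at high throughput by quantitative proteomics. The reported value is the base-two logarithm of the fold change in each protein's soluble amount after stress, taken as a measure of aggregation propensity. The higher the value, the more protein stays in solution.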

Point of comparison: “HMPRIYSITINPEKIRTVIGPGGKVIKDITAKTGTKIEIDDSGKVDIFSPDEEHARMAVEIINTLTEE”, “soluble fraction (log2)” value 0.14. Against it:
- HMRNSVQREWIYDYIQRQDAHLSADEIYEGLLKEGKNISLATVYRNLSILVDEYKIASVMTDSKKQVYDK — lower, -1.23
- HMDIHSEEYILGQNIRKYRLRLGWSQADLSNAVDIDRADISKYENGAKGIMSSTLLRKFAKALGVSMDALM — lower, -2.76
- HMVNSIQIHKKLRLDKRAGSDNWYARLTLPNGKRLVKTTKTEDIETAKEVALRLYYEVDARIQNKLPAT — lower, -1.45
- HMLDLSEEEQKIVSILEKQGNLQINSLVVEADIPVHKINAILFELEMKGVVRVLALSLIHISEP — within 0.2 log units, 0.0725
- HMVKLSVGDIVQFAGGPHYVSSSAAKPASSPTAGPAKVTMIYQGAKHPYHIVHTTSASTVWGWVDADKVVK — lower, -0.245
- HMGVREIIVQFLEQFDKPKSVQEIVEYVLRYRNTTENSIRSTMYSGSQFRQFDNGYFGLSDKSYPNEYIYA — lower, -0.603
- HMIFTPNGDRVNDVFEIEMGVKLEFQIIILNQQNQTVFKSADPDFKWDGTMLNGEPAPSGTYLYYFSAKD — within 0.2 log units, 0.0847
- HMIPEKEISYMMPDGFMPKELKIIHITESGRKQIYSAAHKPLDLVNVKAPFVPNTKVQIYINDVPIEELKI — lower, -0.418
- HMFDPTDLPEKQLMVYEIIKSNNGINMTNIASLLGFNKTTVDNAIRALKKKEIVVFKGTNRSGGYFNT — lower, -1.66
- HMAKLTPDQQELRAIRIELQMSQPDFADAININVPRLSSYEYGRTAGVPTSIMEAARELKRSMSR — lower, -0.811
- HMENLQLQQLVKGLPEKMQEIVILRFSQELTMREIADIVNLPMRTVQSQLRLALKILKKEMG — lower, -0.447
- HMVSRAFEEETVKRAESGNQEAALFALELAIREIEHSYEKSKIIDYFVSKVRLFLDNGVSLERALGIH — within 0.2 log units, 0.0637
- HMQYDESSQLGERFLNQALNALKADPDKVGDAQWEKLLKENSAKSRQEVLADIGLGKQLAIVIARELLS — lower, -0.115
- HMTKLLSALQADKFAKKLANDTNFGSNFARMGESAMDFTNRLVEELQRDEGKVANYMPYLTKLGF — within 0.2 log units, 0.312
- HMTRQEFIRKLQEALNGKLDAATIQDHLKFYDDYIIEEMRKGKSEQEVLELLGDPWAIAKTIVDAS — higher, 0.349
- HMSSLTQREYEIAELVADGLSNKAIAAELSISHTTAARHVANIMNKLGFNSRSQIAAWVADRAQG — within 0.2 log units, 0.11
- HMIEYYDDEELDVFKGRQSDNYTNKEIEQFAEVLHTMRQDEVKGWNRSLILRSINLPDSLKDEVIMLI — lower, -0.672
- HMTKKEFLDILTESLAGNVPASEIEENIRYYKDYIENGEESEEKALEQLGDPHLIARTIIDSFIA — lower, -0.127
- HMVAQEVPYSTFVMRLDRNEVDAVKIIDGNEIEGTFKSPNGDLVQFKTLIPYQDTELMPLLKQKGVRISGS — higher, 0.386
- HMKAPDSQYKPLTDFQTDASFQKLDAYLRNRYPAMLANAVVYDVLRTPDAISYRVNYQVDNKMITINAAVT — lower, -0.126
- HMENDGQFLRAEREKYGLTLTDIYEHTHIPIKKLKAYEMWEEEMPPRTRALLELYFDQVAFEYDS — lower, -0.8
- HMDLQNIQNQLNTEFAKSDTRIIFWFDDKGEYEDEVSELQLGDVKLHILDGLNWFYSKYLLNEA — lower, -0.274
- HMGQVAKPPLKELGADPVTGKPMVLKDGRFGPYVTDGEYNASLRKDDDIETIGVERAAELLQIRREKGP — lower, -0.081
- HMQDTQAEEGETLLDALRRIHPESSTGTLRRMLTQGRVQLDGDSVHAAKTVLSAGQRVEVVAR — within 0.2 log units, 0.0446
- HMVVLNQEQIKFIDHYLQVSKVRYVDVRSELTDHIATAVELKMQDEALDFYEAFKAFIAVNKSQLLQRN — lower, -1.45
- HMNGLNISYRMDGENVVETIVFPDATMIRTIAPNGVMTIKTIEDGSVSTSELKADYKLYKKIYESQY — lower, -0.262
- HMDNWYIAFNSFLSQNKLTAKNVSELTGLSKPTIDSYKQGKRKPTDENMQIIKDKLGFNISEILYN — lower, -0.265
- HMDGRSLSHATLEEIRIRAVQRVEAGESPEVVVKALGFSRPRIYEWLALYREGGLEALRAKPV — lower, -0.505
- HMQFHQDNYALEFIRDLQPVDGAIILSRFKQFDLVELEKAKKIKFSDEHMAWTLYDYDIKKIN — lower, -2.3
- HMKGSIMIETILKELKKNNKGFNFLLEKFDISEDELMKIINDLIHDKKVFLNSNNKYEIVSD — lower, -0.238
- HMNMVSGHLQVKKGYYYAVLSFYDSKNKRHVKYISTGLPEKGNKRKAEAELVKIRNAFEPPAE — lower, -0.338
- HMINLVPFELKFITAQVLDDIIKKIGINADTIILDINPKKIWVYAGEQELSDIQNIVKNVDVEDNI — lower, -0.443
- HMNLVELKHAEEFNTLIIQDIGGRMKPAHTLASELVRKVFHNDDFNGIDPRKVFLSIIENSKVWFNVPFI — within 0.2 log units, 0.119
- HMQQIAVDLSEFKPRLMRDMSSMLAGLYTHDLDLSSLDFSKVANFTFMFRGAIITGTLKMPKI — within 0.2 log units, 0.00375
- HMTEQKNNEQQNAVNEKKQALKQLMEKGKEKGSLSYNEVNALLDKLEFTEDQKAIVYDQLHSEDIELQ — within 0.2 log units, 0.193
- HMQQLDDDTVAYVADNGIAVKSKNGKELSVDTSGLSYDIIMDMFRNLPRNGDFFSSKYWSDNIQKAQAR — higher, 0.41
- HMDGVSLLFKLMETLPEQQKTILHLRDVEQLEFAEIAKITNTSQANVRVALSRARKKIKDLLLKQY — lower, -2.17
